Reference: doi:10.1101/323444
Values belong to the substance of their own block, whether it stands above or below them.

Experiments:
Assay in all cases: SEC
[1] = biological target: CckA (WT, N-terminal His-tag in place of its transmembrane helices) (Caulobacter crescentus) (UniProt Q9X688)
[2] = biological target: CckA ΔPAS-A (Caulobacter crescentus)
[3] = biological target: CckA ΔPAS-A ΔRD (Caulobacter crescentus)
[4] = biological target: CckA ΔPAS-A-B ΔRD (Caulobacter crescentus)

stoichiometry N (CckA per complex) [1]: 4
Substance: CckA (WT, N-terminal His-tag in place of its transmembrane helices) (from UniProt Q9X688 1-691) (enzyme)

stoichiometry N (CckA per complex) [2]: 3.1
Substance: CckA ΔPAS-A (domain or fragment)

stoichiometry N (CckA per complex) [3]: 2
Substance: CckA ΔPAS-A ΔRD (domain or fragment)

stoichiometry N (CckA per complex) [4]: 2
Substance: CckA ΔPAS-A-B ΔRD (domain or fragment)
